Test results from the supplement of paper PMC9112550, “Optimization of the antimicrobial peptide Bac7 by deep mutational scanning” (BMC Biology, 2022).

Tested on: Escherichia coli TOP10
Assay: shrunken log2 fold change of peptide-encoding DNA abundance (4.5 h post-induction vs induction); higher = less antimicrobial activity (less host growth inhibition)
Details: time post-induction: 4.5 h; library: site-saturation at positions 5, 18, 19, 20
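Also: peptides expressed intracellularly from a pBAD plasmid library in pooled LB shake-flask culture, induced with 0.3% L-arabinose, DNA abundance read by NGS, three biological replicates, DESeq2 with apeglm shrinkage.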

Sequence | shrunken log2 fold change
RRIRLRPPRLPRPRPRPGWIPRP | 0.0964
RRIRLRPPRLPRPRPRPGWYPRP | 0.354
RRIRLRPPRLPRPRPRPGYIPRP | -0.41
RRIRLRPPRLPRPRPRPHCPPRP | 0.0666
RRIRLRPPRLPRPRPRPHDAPRP | -0.0938
RRIRLRPPRLPRPRPRPHEVPRP | -0.0201
RRIRLRPPRLPRPRPRPHGCPRP | -0.0225
RRIRLRPPRLPRPRPRPHGFPRP | 0.000509
RRIRLRPPRLPRPRPRPHHAPRP | -0.058
RRIRLRPPRLPRPRPRPHHRPRP | -0.263
RRIRLRPPRLPRPRPRPHHWPRP | -0.124
RRIRLRPPRLPRPRPRPHIMPRP | -0.531
RRIRLRPPRLPRPRPRPHKAPRP | -0.0451
RRIRLRPPRLPRPRPRPHLCPRP | -0.355
RRIRLRPPRLPRPRPRPHLKPRP | -0.564
RRIRLRPPRLPRPRPRPHLMPRP | -0.218
RRIRLRPPRLPRPRPRPHLPPRP | -0.353
RRIRLRPPRLPRPRPRPHLWPRP | 0.0492
RRIRLRPPRLPRPRPRPHMCPRP | -0.165
RRIRLRPPRLPRPRPRPHMFPRP | -0.356

Sequence | shrunken log2 fold change
RRIRLRPPRLPRPRPRPHNDPRP | -0.452
RRIRLRPPRLPRPRPRPHNEPRP | -0.497
RRIRLRPPRLPRPRPRPHNNPRP | -0.847
RRIRLRPPRLPRPRPRPHPGPRP | 0.242
RRIRLRPPRLPRPRPRPHRLPRP | 0.166
RRIRLRPPRLPRPRPRPHSPPRP | -0.252
RRIRLRPPRLPRPRPRPHYEPRP | -0.762
RRIRLRPPRLPRPRPRPIAAPRP | 0.272
RRIRLRPPRLPRPRPRPICHPRP | -0.368
RRIRLRPPRLPRPRPRPIDLPRP | -0.0804
RRIRLRPPRLPRPRPRPIEMPRP | -0.0708
RRIRLRPPRLPRPRPRPIETPRP | -0.0258
RRIRLRPPRLPRPRPRPIEVPRP | 0.434
RRIRLRPPRLPRPRPRPIGKPRP | -0.335
RRIRLRPPRLPRPRPRPIILPRP | -1.48
RRIRLRPPRLPRPRPRPIIRPRP | -0.19
RRIRLRPPRLPRPRPRPIKEPRP | -0.0262
RRIRLRPPRLPRPRPRPILWPRP | -0.0294
RRIRLRPPRLPRPRPRPINQPRP | -0.321
RRIRLRPPRLPRPRPRPIPHPRP | -0.332

Sequence | shrunken log2 fold change
RRIRLRPPRLPRPRPRPIPWPRP | 0.0447
RRIRLRPPRLPRPRPRPIQMPRP | -0.0252
RRIRLRPPRLPRPRPRPIRTPRP | 0.0758
RRIRLRPPRLPRPRPRPISPPRP | -0.333
RRIRLRPPRLPRPRPRPIVHPRP | 0.67
RRIRLRPPRLPRPRPRPIVIPRP | -1.37
RRIRLRPPRLPRPRPRPIVTPRP | 2.68
RRIRLRPPRLPRPRPRPKCSPRP | -0.035
RRIRLRPPRLPRPRPRPKCYPRP | -0.414
RRIRLRPPRLPRPRPRPKDCPRP | -0.495
RRIRLRPPRLPRPRPRPKDSPRP | -0.139
RRIRLRPPRLPRPRPRPKEIPRP | -0.00121
RRIRLRPPRLPRPRPRPKFFPRP | 0.002
RRIRLRPPRLPRPRPRPKFWPRP | 0.0752
RRIRLRPPRLPRPRPRPKGYPRP | -0.146
RRIRLRPPRLPRPRPRPKHRPRP | -0.112
RRIRLRPPRLPRPRPRPKHSPRP | -0.107
RRIRLRPPRLPRPRPRPKIEPRP | 0.0278
RRIRLRPPRLPRPRPRPKKKPRP | 0.141
RRIRLRPPRLPRPRPRPKKMPRP | 0.126
